Results from article PMC9864903, “Imaging of the Glucose-Dependent Insulinotropic Polypeptide Receptor Using a Novel Radiolabeled Peptide Rationally Designed Based on Endogenous GIP and Synthetic Exendin-4 Sequences” (Pharmaceuticals, 2022).

Columns and labels:
[1] = ex vivo organ distribution in Sprague Dawley rats; details: rat, i.v.
Method: The in vivo organ distribution of [^68Ga]Ga-C803-GIP was assessed in Sprague Dawley rats (324 ± 36 g, male, n = 16). The radiotracer was administered into the tail vein of unsedated animals as a bolus in 0.5–0.6 mL of PBS as the vehicle. The animals received 4.1 ± 2.2 MBq/kg ^68Ga]Ga-C803-GIP corresponding to 2.4 ± 1.3 µg/kg peptide mass.
The in vivo organ distribution was conducted for 5 to 180 min, euthanizing two animals at each of eight time points (5, 10, 20, 40, 60, 90, 120, or 180 min). Samples of blood, heart, lung, liver, pancreas, spleen, adrenal, kidney, small intestine (without/with its content), large intestine (without its content), feces, urinary bladder (rinsed), testis, muscle, bone, bone marrow, thyroid, and brain were immediately harvested, weighed, and measured for radioactivity (gamma counter). The organ uptake of [^68Ga]Ga-C803-GIP was corrected for radioactivity decay to the time point of administration and expressed as standardized uptake values (SUVs, Equation (1)). (1) SUV (1/1)=Radioactivitytissue (Bq)/Weighttissue(g)/Radioactivityinjected (Bq)/Weightbody(g)
The competition experiments were designed and guided by the results of the organ distribution study. Based on the observed rapid clearance of [^68Ga]Ga-C803-GIP from the pancreas (known to contain the GIPR), 20 min post-administration was the time point selected for the blocking studies. The rats (351 ± 23 g, male, n = 8) were administered [^68Ga]Ga-C803-GIP (18.4 ± 3.7 MBq/kg; 10.7 ± 2.2 µg/kg). A high radioactive dose was selected to potentially increase the tissue signal. Half of them (n = 4) received [^68Ga]Ga-C803-GIP alone, while the other half was co-injected with 1 mg/kg of non-labeled C803-GIP. The animals were sacrificed 20 min after the administration of [^68Ga]Ga-C803-GIP, and the tissue uptake of the tracer was analyzed as described above.

[2] = post-production stability of the 68Ga-labeled product at room temperature (UV-Radio-HPLC); format: physicochemical; details: ambient temperature, for at least 2 h, with addition of ascorbic acid
From the text: The ^68Ga-labeling procedure was optimized in terms of the radiochemical yield and required optimization of such factors as temperature, heating time, radical scavenger content, buffer concentration, pH, and product purification mean. The labeling was reproducible with a high non-decay corrected radiochemical yield of 61.1 ± 2.9% and a molar activity of 59.8 ± 4.4 MBq/nmol at the end of the synthesis (Figure 2). The radioactivity at the end of the synthesis was 424 ± 29 MBq with a radiochemical purity of 94.5 ± 0.3% (for the chromatogram, see Supplementary Materials, Figure S1). […]
The ^68Ge/^68Ga generator (pharmaceutical grade, GalliaPharm®, Eckert & Ziegler, Berlin, Germany) eluate was fractionated, and the top fraction of 3.5 mL containing approximately 90% of the radioactivity was collected for the radiolabeling. […] The radiochemical purity and the peptide concentration in the product were determined by high-pressure liquid chromatography (HPLC). […] The stability of the product at room temperature was monitored for 2 h and assessed by UV-Radio-HPLC. […] The total radioactivity of the product was then measured in an ionization chamber. The radioactivity recovery from the analytical column was controlled by performing an analysis of the product, generator eluate, and the product spiked with the generator eluate with and without column. […]

CC[C@H](C)[C@H](NC(=O)[C@H](CO)NC(=O)[C@H](Cc1ccc(O)cc1)NC(=O)[C@H](CC(=O)O)NC(=O)[C@H](CO)NC(=O)[C@@H](NC(=O)[C@H](Cc1ccccc1)NC(=O)[C@@H](NC(=O)CNC(=O)[C@H](CCC(=O)O)NC(=O)[C@@H](C)NC(=O)[C@@H](N)Cc1ccc(O)cc1)[C@@H](C)O)[C@@H](C)CC)C(=O)N[C@@H](C)C(=O)N[C@@H](CC(C)C)C(=O)N[C@@H](CC(=O)O)C(=O)N[C@@H](CCCCN)C(=O)N[C@H](C(=O)N[C@@H](Cc1c[nH]cn1)C(=O)N[C@@H](CCC(N)=O)C(=O)N[C@@H](CCC(N)=O)C(=O)N[C@@H](CCC(=O)O)C(=O)N[C@@H](Cc1ccccc1)C(=O)N[C@H](C(=O)N[C@@H](CCC(=O)O)C(=O)N[C@@H](Cc1c[nH]c2ccccc12)C(=O)N[C@@H](CC(C)C)C(=O)N[C@@H](CCCCN)C(=O)N[C@@H](C)C(=O)NCC(=O)NCC(=O)N[C@@H](Cc1c[nH]cn1)C(=O)N1CCC[C@H]1C(=O)N[C@@H](CO)C(=O)NCC(=O)N[C@@H](C)C(=O)N1CCC[C@H]1C(=O)N1CCC[C@H]1C(=O)N1CCC[C@H]1C(=O)N[C@@H](CO)C(=O)N[C@@H](CSCCS(=O)(=O)CCN1CCN(CC(=O)O)CCN(CC(=O)O)CCN(CC(=O)O)CC1)C(N)=O)[C@@H](C)CC)[C@@H](C)CC [[^68Ga]Ga-C803-GIP, metal not drawn]
SUV at 5 min ([1]; male, Sprague Dawley, liver, iv, total radioactivity, 5 min post-administration, read-out: liver uptake): < 1 SUV
liver washout with respect to the 5 min time point, within 1 h [1]: 50%
liver washout with respect to the 5 min time point, within 3 h [1]: 75%
kidney uptake ([1]; within 3 h): 85.5 ± 1.6 SUV
radiochemical purity on post-production storage (stability) [2]: over 91%
